The values below come from US20120308571A1 (FUJIFILM RI PHARMA, published 2012).

Test [1] has as its target T1, human podoplanin (human, UniProt Q86YL7 23-162).
T1 construct: whole, on cells; also called Aggrus
T1 sequence (looked up): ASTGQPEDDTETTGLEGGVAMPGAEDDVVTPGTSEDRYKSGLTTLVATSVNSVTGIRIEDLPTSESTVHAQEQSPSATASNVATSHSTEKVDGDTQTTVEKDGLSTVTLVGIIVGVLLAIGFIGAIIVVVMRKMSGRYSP
The experiment in a line: flow cytometry on H226 and LN319 cells, 10 ug/ml antibody. As to the method: First, NZ-1 antibodies, mouse chimera-type NZ-1 antibodies, and human chimera-type NZ-1 antibodies (10 μg/ml) were reacted at 4° C. for 30 minutes with human malignant mesothelioma cells (H226) and human glioma cells (LN319) which expressed human podoplanin. In addition, anti-rat IgG-FITC antibodies, anti-mouse IgG-FITC antibodies, and anti-human IgG-FITC antibodies were respectively reacted at 4° C. for 30 minutes. The fluorescence intensity was measured by FACSCalibur (BD).
In general terms: A flow cytometer gives signals particle by particle.

Test [2] concerns the target T1, human podoplanin. Nature of the test: flow cytometry on H2052 mesothelioma cells, 10 ug/ml antibody. As to the method:
Meanwhile, the expression of podoplanin in the mesothelioma cells was confirmed by flow cytometry. Specifically, the cells were reacted with NZ-1 antibodies (10 μg/ml) at 4° C. for 30 minutes, and further reacted with anti-rat IgG-FITC antibodies at 4° C. for 30 minutes. Fluorescence intensity was measured by FACSCalibur (BD).

B1: human chimera-type NZ-1 antibody (antibody)
heavy: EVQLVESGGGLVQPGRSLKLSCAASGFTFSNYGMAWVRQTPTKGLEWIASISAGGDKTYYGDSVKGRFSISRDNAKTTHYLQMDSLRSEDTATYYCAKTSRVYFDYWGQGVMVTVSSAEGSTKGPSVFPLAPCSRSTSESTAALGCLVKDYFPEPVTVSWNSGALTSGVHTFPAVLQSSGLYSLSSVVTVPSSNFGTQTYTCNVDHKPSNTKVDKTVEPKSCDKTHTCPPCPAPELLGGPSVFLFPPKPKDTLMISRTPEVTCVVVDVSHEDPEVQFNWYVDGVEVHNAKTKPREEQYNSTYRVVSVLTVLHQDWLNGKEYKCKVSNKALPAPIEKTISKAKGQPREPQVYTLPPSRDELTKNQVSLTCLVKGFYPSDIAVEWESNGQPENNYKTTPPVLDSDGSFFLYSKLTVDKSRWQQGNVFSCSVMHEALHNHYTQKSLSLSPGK
light: QFVLTQPNSVSTNLGSTVKLSCKRSTGNIGSNYVNWYQQHEGRSPTTMIYRDDKRPDGVPDRFSGSIDRSSNSALLTINNVQTEDEADYFCHSYSSGIVFGGGTKLTVLGQPKGIRTVAAPSVFIFPPSDEQLKSGTASVVCLLNNFYPREAKVQWKVDNALQSGNSQESVTEQDSKDSTYSLSSTLTLSKADYEKHKVYACEVTHQGLSSPVTKSFNRGEC
notes: Heavy chain is the VH of rat NZ-1 joined to the CH1, hinge, CH2 and CH3 of human IgG1; also called human chimeric antibody; human chimera-type antibody
B1: in test [1], the binding result is given as “binds”.

B2: rat NZ-1 antibody (antibody)
heavy: EVQLVESGGGLVQPGRSLKLSCAASGFTFSNYGMAWVRQTPTKGLEWIASISAGGDKTYYGDSVKGRFSISRDNAKTTHYLQMDSLRSEDTATYYCAKTSRVYFDYWGQGVMVTVSSAETTAPSVYPLAPGTALKSNSMVTLGCLVKGYFPEPVTVTWNSGALSSGVHTFPAVLQSGLYTLTSSVTVPSSTWSSQAVTCNVAHPASSTKVDKKIVPRECNPCGCTGSEVSSVFIFPPKTKDVLTITLTPKVTCVVVDISQNDPEVRFSWFIDDVEVHTAQTHAPEKQSNSTLRSVSELPIVHRDWLNGKTFKCKVNSGAFPAPIEKSISKPEGTPRGPQVYTMAPPKEEMTQSQVSITCMVKGFYPPDIYTEWKMNGQPQENYKNTPPTMDTDGSYFLYSKLNVKKETWQQGNTFTCSVLHEGLHNHHTEKSLSHSPGK
light: QFVLTQPNSVSTNLGSTVKLSCKRSTGNIGSNYVNWYQQHEGRSPTTMIYRDDKRPDGVPDRFSGSIDRSSNSALLTINNVQTEDEADYFCHSYSSGIVFGGGTKLTVLGQPKSTPTLTVFPPSTEELQGNKATLVCLISDFYPSDVEVAWKANGAPISQGVDTANPTKQGNKYIASSFLRLTAEQWRSRNSFTCQVTHEGNTVEKSLSPAECV
notes: Rat monoclonal antibody from the NZ-1 hybridoma; also called rat monoclonal antibody NZ-1
For B2, the binding result in test [2] is on record as “binds”.

B3: mouse chimera-type NZ-1 antibody (antibody)
heavy: EVQLVESGGGLVQPGRSLKLSCAASGFTFSNYGMAWVRQTPTKGLEWIASISAGGDKTYYGDSVKGRFSISRDNAKTTHYLQMDSLRSEDTATYYCAKTSRVYFDYWGQGVMVTVSSAETTAPSVYPLAPGTALKSNSMVTLGCLVKGYFPEPVTVTWNSGALSSGVHTFPAVLQSGLYTLTSSVTVPSSTWSSQAVTCNVAHPASSTKVDKKIVPRRSPPLKECPPCAAPDLLGGPSVFIFPPKIKDVLMISLSPMVTCVVVDVSEDDPDVQISWFVNNVEVHTAQTQTHREDYNSTLRVVSALPIQHQDWMSGKEFKCKVNNRALPSPIEKTISKPRGPVRAPQVYVLPPPAEEMTKKEFSLTCMITGFLPAEIAVDWTSNGRTEQNYKNTATVLDSDGSYFMYSKLRVQKSTWERGSLFACSVVHEGLHNHLTTKTISRSLGK
light: B2 light
notes: Heavy chain is the VH and CH1 of rat NZ-1 joined to the hinge, CH2 and CH3 of mouse IgG2a; Light chain is the rat NZ-1 L chain; also called mouse chimeric antibody; mouse chimera-type antibody
As to B3, in test [1], the binding result is “binds”.
